Paper doi:10.1101/2024.10.17.618658

Key:
[1] = molecular target: human Juno glycosylated ectodomain (ECD), wild type, with C-terminal SpyTag (human) (UniProt A6ND01); experiment: flow cytometry-based bead-binding assay
[2] = molecular target: human Juno ectodomain, infertility-associated variant H177Q, with C-terminal SpyTag (human) (UniProt A6ND01); experiment: flow cytometry-based bead-binding assay
[3] = molecular target: human Juno ectodomain, infertility-associated variant H177Q, with C-terminal SpyTag (human) (UniProt A6ND01); experiment: AFM-based single-molecule force spectroscopy
[4] = molecular target: human Juno glycosylated ectodomain (ECD), wild type, with C-terminal SpyTag (human) (UniProt A6ND01); experiment: AFM-based single-molecule force spectroscopy

Kd [1]	Kd [2]	average median peak bond lifetime under clamped force (40-50 pN) [3]	median bond lifetime under clamped force (before the slip-to-catch transition) [4]	median bond lifetime under clamped force (peak of the catch bond, 40-50 pN) [4]	Substance
110 nM	–	–	–	–	human Izumo1 ectodomain K150A with C-terminal SpyTag (from UniProt Q8IYV9 22-292) (domain or fragment)
45 nM	64 nM	0.17 s	0.02 s	0.15 s	human Izumo1 glycosylated ectodomain (ECD), wild type, with C-terminal SpyTag (from UniProt Q8IYV9 22-292) (domain or fragment)
